The text below walks through data of the domain aggregation screens of Martell et al. (2025).

The data set is described as follows: soluble fraction after stress (log2 fold change); higher = more stays soluble; pooled small domains, quantitative proteomics. The following applies: stress: pH 4. In a few lines:
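Values are log2 fold changes, and higher ones mean more of the domain stayed soluble. Each fold change reflects the soluble amount of a domain after acid stress and is taken as a measure of aggregation propensity. The stress was pH 4, applied to pooled custom libraries of small protein domains analysed by high-throughput quantitative proteomics.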

Take “HMLTWNQLGLITKPVVFLDGTGYYARLFEAFEHMISTGFVKENYRAMMNRATSVEEAVRIASSPAPKVD”: the “soluble fraction (log2)” value was -0.187.
Take “HMLVGGPDTPSKVTVSFDLGSRQAVDELTERAGAAGGRIGDIDDYPFMYQRQFDDPDGYHYSPFWMKP”: the “soluble fraction (log2)” value is -0.528.
For the sequence “HMLVTQSITVPMAMSGIRLDAALAMLFPDHSRNRLKAWLDDGHILVDGAVWAGKQRLEGNEEITATLPEAK”, the “soluble fraction (log2)” value is -0.189.
For the sequence “HMLYDNQLPDWAGQMVKNHGLTISPKALVILVDHIGNDLSRIENEIEKLMLNLGTRKSITEDDVEN”, the “soluble fraction (log2)” value was -1.34.
As to “HMLYETLKKGDQGTSVKTLQEKLKALGYLTGAADGKYGAGTETAVKSFQKAAGLTETGTADPETLSAVYAA”, the “soluble fraction (log2)” value is 0.0393.
“HMLYITEIQKKIMDAFLVVANESNSGTRITMNEIANKVRMTPQAIYRKHFKSVIEISDTIRD”: the “soluble fraction (log2)” value is -1.17.
Next, “HMMEERVIEFANVLRRNGVRVSLAENMDAFRALKSLGISDPLLFRHALRATLIKRGSDIQPFEELFDFFFL”: -1.08.
As to “HMNAAFMKAERLLAILNILLTGKRVSSTELAKKLEVSVRTVYRDVEALSEAGFPVYATMGRDGGFGLIEGF”, the “soluble fraction (log2)” value is -1.58.
Regarding “HMNADAIIGRMGKVTEPITPDGYGRVEIDGDSWKATAVGGVAIAEGTRVSVVSLDSIIITVKTV”, the “soluble fraction (log2)” value was -0.117.
In the case of “HMNADAIVGRTGVVTEAIAADGFGRVQIDGDSWKAKASGNNGIDVGAKVRVLRIDSIILTVEK”, the “soluble fraction (log2)” value was found to be 0.059.
Take “HMNAELSTVQAAEVLNVSRPFLIKLLEDGAIPHRKVGKHRRVRMEDVMSYKAAIDTEREAVLDQLAA”: the “soluble fraction (log2)” value was -0.722.
On to “HMNAISIDEAKKIALAKVSGASDQHIRIEADHDDGRLVYEGEIHYGRVEYEFEIDGSTGAIIEWDADRK”, for which the “soluble fraction (log2)” value was -0.0156.
For “HMNAKKSTLQLDLLKQLLEGNKISLKDFSLSNEISIRTAQRYIEDLLEIFEKNIVKEGDFYSFIS”, the “soluble fraction (log2)” value was -1.34.
Regarding “HMNAKNPRALAIQYVFKMQMGNFLHAKTDNQQQEQERIMTLFNEENKNTILPRWGKELLSYINRN”, the “soluble fraction (log2)” value is -0.208.
Turning to “HMNDENIIIEEIKYFIKSNQIKEQEKLPSERNLSELFTVSRFSLRKALRHLVDTGYLYVKDKSGYYYQGD”, the “soluble fraction (log2)” value is 0.00355.
As for “HMNDLIKMPYLVGQLYDDVASNQEYADFQFKITEGNDPDKQPGEIMKQDPAADIMVKKNAEVELLVNG”, the “soluble fraction (log2)” value was determined as 0.193.
Next, “HMNDLKEDTITVQSVEYIDSDDGTMVYIKDTNHQVYKQAFKEDESLIRISAGDVLHVKYQPMDNEIHLL”: -2.07.
Turning to “HMNDMPELLSIKEASQWATEYLNKNVTTSNIAYLIQYGRIRKIGNNGSTQVLKDDLVKYYKDQK”, the “soluble fraction (log2)” value is -0.0394.
Turning to “HMNDMWADITINANGKATLVVHTHEIKYLGLTGHLGKMEINGTAKEPVKDSSGDVVDYYFTFTDLDASMF”, the “soluble fraction (log2)” value is -0.623.
For “HMNDNFTPDDLNRLARIKDLPQAKKYALELISNKSAKPMKPEKVRWFANQLQKKKSVMDITKMMYDLLLA”, the “soluble fraction (log2)” value came to 0.198.
Next, “HMNDNTAINEFKKMVFTRMVHLQIDNAELSKLSGVTNSKILALKYGNSNTLKLGDIVKVAKTLNINLNDL”: 0.094.
Next, “HMNDPFVILGVSKDASQSEILEAYKQKRAYYQERVFDEGDEGAQAARMLTQLDDAYQQAMELSHES”: 0.17; “HMNDPIESLTPREREVLTLMAEGRTNAAIAAQLVVTEGAVEKHTQHIFAKLGLLPDSAVHRRVKAVLALLS”: -0.637; “HMNDPNAPITENQLKAIHVLLDKLKVDDNLKHAYIADVLQLDNEPETLKTLTKAQGSMAIERMQLLKDN”: -0.42.
“HMNDQLIYSDFIRQVQDGQITEVTISGLNIAGTRSDGSVFNTLRPYIEDPKLIDDLLSHNVRIQGAE”: the “soluble fraction (log2)” value was -0.632.
As to “HMNDRERIGKRIAQLRMEAGISQYKLAELTGLAPGNIARIETGKYSTGIDILSKIGDALGYQLDFI”, the “soluble fraction (log2)” value was -0.414.
Next, “HMNDRLAGMEGQRGEAATNFDQGEGKVKVGDTVWLAKQSDSTVIVEGDQIVVTGSENGLLKVRL”: -0.453; “HMNDTLGVNIKRLRKEKGMTQDEVAKAVYTTRYNILRYESGKMTPSSEVIERLEKALGVPTGSLAQ”: -0.0881.
For the sequence “HMNDTSLIIDNLMLKLGNNIKNFSEIYSLLRKNLAEYGEEFIKSKVDYVLKNFNDNIEENLKKLLTE”, the “soluble fraction (log2)” value is -0.601.
In the case of “HMNDVGKVLNQLGERDRMILLLTYWDELPLKEAARILEVSENNAKIILFRARSRFASLWSAGS”, the “soluble fraction (log2)” value is -0.794.
Next, “HMNEAVVVPDVKGLTLDEADEFFKNSKLRYNVVDSVFSKDVAPGAIVELVPVAGSKVKENRIVFVTINAQ”: -0.517.
Turning to “HMNEDTEDIKNINSLVNKLTENNFDIIRDSIVKLINKEHLIPYIIETIIEKSILHHRYVHLYVSILKE”, the “soluble fraction (log2)” value is -0.119.
Consider “HMNEDYSSMVGKTGFALTILRPAGKIMIEEEVFDAVAINGYISKGQEVEVVRYENAQLYVKVK”, for which the “soluble fraction (log2)” value was -0.228.
For the sequence “HMNEFGIPDKKLQDIETRVNSMSLEQLNAARSMLIDEQEALNSSTGSASSGRLKEIAAELSTIQKALIAIA”, the “soluble fraction (log2)” value was -0.0513.
For the sequence “HMNEFNEVVPDSLEGERLDRLLAFIGNISRSEASNIIKGGEVLINGKVVTRPSFKVTLGNRVEFSIRD”, the “soluble fraction (log2)” value is -0.19.
Next, “HMNEGETLYRLRAGDGRARLDKFLAAALPDISRTRFKGLIESGHVRVGGETITEPAYRVKSEAEVELTVPE”: 0.0187; “HMNEIALETAIEDVESFIQMQNRNLAFSIDEDTDRAVVTVRDSDSGDVIRQIPSEEVLALAERIQDLQQD”: -0.485; “HMNEIDDYDIQLLEYLSKGVSQEAMESVFKQAGITPNSKSTIEKRISKLKIYFKALNTTHLVSITKDLGL”: -1.27.
For the sequence “HMNEKEAEEAAEAQTEVPDVTGMAPAQAKNMLYQAGLSSEYRGEGETVSRQLPPAGETVNRGTKAVLYL”, the “soluble fraction (log2)” value amounted to 0.2.
As to “HMNEKGTNSTINEITRISKPGRRVYVGSAEIPKVKSGRGLVLISTSKGVMTGAEAAKAKLGGELLLKV”, the “soluble fraction (log2)” value was 0.129.
Take “HMNEKMKEIGLRIKELRELSDISAQGMADHLKIPLETYQEYEDGKKDIPASILFEISQKMEVDMGLLLTGE”: the “soluble fraction (log2)” value is -0.253.
As to “HMNELTDKQILLFSNKLAHNIPFSSKYSKPGESYEEFAERLANELIDPQKVKLYKPYLEEVGFK”, the “soluble fraction (log2)” value amounted to 0.112.
Next, “HMNEMIFNQKKIGQFFMNPETNSPMIYPLELGHKMKIIELKNGWYNVTDEKTGLNGWVKEEDFGVTKPLDS”: 0.0629; “HMNENDENLRQQAIDASKEVRRWGEPVTLPPMNAHDRRIIHITLEGESDLQTESTGEGNFKSVVISLK”: 0.0645; “HMNEPSSYGYAISVALDRNGLGTVKGGTLYPLLARLEQAAHVETRWEAGDGGPGRKYYTITDSGRS”: -0.41.
For “HMNERLKQLRLSLNLNQEEFGKWLGISKSGVSDIESGRRKVTEQHIIMLSNHNISEKWLRTGEGEMFV”, the “soluble fraction (log2)” value is 0.0158.
Consider “HMNETNKMPNLVNQTDSSAIAQLNAMELGLKITTKEESSETVLAGYVIRTEPAADTELTKNQAVTVYVS”, for which the “soluble fraction (log2)” value was found to be 0.0693.
For the sequence “HMNETTVPDVINQNISTGKIIIEDADLEYRIQYIPSEKSSSIGTIINSIPIYGKRVKSGTIVDLKVLG”, the “soluble fraction (log2)” value is -0.34.
In the case of “HMNETVTNQTVLDLLKEGFTSEEIIGAIENSSTRTITYDINFMRQLKAAGADVTLTTYLQKIAKKDM”, the “soluble fraction (log2)” value is -0.711.
Turning to “HMNEWSIDINLADEKQWTAKTKLSPAIIQNIIRYKNYLGGFTNLNQIKKVYGFTEANYYLLKPHLQLGK”, the “soluble fraction (log2)” value is -0.386.
In the case of “HMNFDLDSFKQRMTLDGLYFGNEKQDVIALNNLSERYQLTWFDVYQLAKETSSNHKILPKRILVKLQQ”, the “soluble fraction (log2)” value worked out at 0.158.
On to “HMNFEIEVTENGKRIDSYLAEELDLSRSKVQKLIKQELVTVNGKVVSNNYNVKLGDTILVNDD”, for which the “soluble fraction (log2)” value was determined as 0.154.
With “HMNFFQEIGNSILIELNKKNWTQSMFAHKIGVSDEVFKQIVQGKKALNAVEIAKIANTLDVDPEKLLRK”, the “soluble fraction (log2)” value was -0.0391.
Take “HMNFTEAEQRFHFLEDQRQRGVLSLEQYRAELAQLRVTDAWGRLWMLQEQTGQWFVFHEGQWRPSQ”: the “soluble fraction (log2)” value is -0.266.
On to “HMNGEDVTDAIRLPQISQYASVVSAYPGVRAFLLEMQRDFARKGSVIMDGRDIGTVVLPEAEVKIFLT”, for which the “soluble fraction (log2)” value worked out at 0.278.
Consider “HMNGGPHYLRDVRTSLGLSQADLAKAVGTSANMIHYLESGERALTLKWIRRISEALNVSPMRLIN”, for which the “soluble fraction (log2)” value is -0.0552.
On to “HMNGLPDLSRYTGVSIVDGLASVGSDSSFAYRAKIAETLGISDYKGSAGQNLEMIRKLGGKV”, for which the “soluble fraction (log2)” value is -0.172.
“HMNGTGSVYKLSGKRRNPWRAVVTNGWAYNEEKGKLVQNRVTIGYYHTRDEAIQAIANYNSSP”: the “soluble fraction (log2)” value is -0.125.
On to “HMNGVFIMHTPDGKVLRTEEGEEAVITLFNWSGQLLWSKTSLGQLPLPEGTQGVLQVQYKSGDQHTIKT”, for which the “soluble fraction (log2)” value is -0.425.
For the sequence “HMNHAPSLMRKIRRGLKEGRNPDDLLVNAKSISDYYYRSLSFYLLAPHFSSKSKQYKQVISLANS”, the “soluble fraction (log2)” value was -0.151.
Next, “HMNHHTEQQLKALSNKVKDHRMRMRLLAVAHFKAGKNKADVARTLNVSRRMVNEWVANYFKGGVSALES”: -0.047.
Next, “HMNHLLYPNPANNFIWIKNSTSNTAVIYNLQGVMSKVEVSEEGKIDISRFSPGLYMIKQGERIYKFTIA”: -0.358; “HMNHLSYEQRLKIKEMLDGGFKKIDIARALGVHNATIYREIERGSVNGIYNPNKSEEQYRDHLSEK”: 0.0704.
As for “HMNHYIGVDRAKEIALNHANLSETDVVFTKEKLENDDGGAEYEIEFHSGRTEYDYTIDAASGNIIEYDVDY”, the “soluble fraction (log2)” value is -0.17.
With “HMNIDGLIGKKALVTADIDNVNSKGQIKINGLEWTARSVDDEPIPMGTEVEITAISGVKAIVRKG”, the “soluble fraction (log2)” value stood at 0.309.
As to “HMNIEANLEDILRRAMPSAAKLILENSLNINKIIGTGKEGRITKGDVLLYLKDKNLILENILN”, the “soluble fraction (log2)” value is 0.0861.
As for “HMNIEEAESILKEIKTVLTDKEYEVYTLRAKGFTYQEIASLLNTTTKSVDGALSRIKTKINNIK”, the “soluble fraction (log2)” value stood at 0.0204.
Next, “HMNIFKLYEENIGPLTPMIADILKEDEAEFPDYWIREAIEIAVKKNARNWKYVHAVLESWQKE”: -0.259; “HMNILKAPMPGLILDVIVKESDLVKKGDPVIILEAMKMENILSSPVDGIVKEIKVNPQQTVEKNNTLIKFE”: -0.469.
